Data published in the DeepSol protein solubility set.

assay: soluble on expression in E. coli; label from the status in PepcDB or PDB records

Sequence | soluble on expression in E. coli
NTQITIKMEPDTQALEEVVVIGYGAVKKRDLTGAVSSVKNEDITLTPATNPMQALQGRVAGLDITQASGQPGEGPKLQLRGTRSFTASGDPMFIIDGMPGDYSTLNPNDIESIEVLKDASSTAVYGAAGANGVIIITTKSGKAGK | not soluble
MAHHHHHHMSTGHLRSVQLCRGQLRSLSHSSSMVGLRDFCNLVDECIKDIGVLKVNADDARILLHKRQQTFPSRHCDGVLAQTQVLYAQVLLKNLAEPVNRLIVRPVAVKNEGSEGLGVLHKPYDGAQSASPEIIAAQLELLQRAHRPTALNVLQDCRVHAATLLRAVRAVQLAQVRFSPHEKCTNTHGPKKKKK | not soluble
MEEIIKPVSKELLKAELTEDRRLRMTNKSNNQIYIITHQNAPNVMREIGRLREIAFRAAGGGTGLSMDIDEYDTMEHPYKQLIVWNPEAEEILGGYRYLLGTDVRFDEAGAPILATSHMFHFSDAFIKEYLPQTIELGRSFVTLEYQSTRAGSKGLFALDNLWDGLGALTVVMPNVKYFFGKVTMYPSYHRRGRDMILYFLKKHFNDREELVTPMEPLILETSDEELRTLFCKDTFKEDYKILNTEIRKLGYNIPPLVNAYMSLSPTMRMFGTAINYEFGDVEETGILIAVDEILEDKRIRHIQTFIESHPDALKMPCESEGVFTPKVVTPQEGCCH | not soluble
MTAAIAAPAYDAIVIGSGIGGLVTATQLAAKGAKVLVLERYLIPGGSAGWFEREGYRFDFGASIIFGFGDPGTTNLLTPPLADVGQALETIPDPVQIHYHLPNQLDLKVHRDYEAFLQELIAQFPQEAEGIRRFYDECWQVFNCLNAMPLLSLEEPKYLFNVFLQHPLACLGLVKYLPQNVGDIARRYIRNPDLLKFIDMECYCWSVVPATMTPMINAGMVFSDRHYGGINYPKGGVGRIAEKLVAGLEAKGSSIRYKARVTRILTEKGRAIGVELADGEKLYAKRIISNATRWNTFG | soluble
AVVFLWRNEEKWPAEFVSENVVKFGYTVEDFISGNFLYGDIIHPEDRNRVKEELKTRIRRGEVDFNTGYRIFTKAGDVRWVNERAFIQRNREGEITHIQGLVLDIT | not soluble
MQVSDLFIREMPSDCLPRERLLAIGEKALSNQELLAILLRTGSKEADVMTVAATLLKQFKQLSYLQQATLNELMAIKGIGQVKAIELRAAIELGCRIYQSSQIKFGKVTSSQQVAQRLLQEMKGLQQEHLICIYLNTKNDIIQQKTIFKGSLNQSIAHPREIFREAVKYSSARILLAHNHPSGNPTPSPQDIQFTKRMEECGEMMGIQLLDHIILGDSGYISLREENFFASE | not soluble
MGSDKIHHHHHHMLDPSLLGHRFRRRPWAMFEVLTPLHIGNGNELTPVDFYPLGDRIIVLDTEKLINDLLRLGVEVEELLDFLRNPPGSLYLWRGYLEKLHLDPRNYARYSLRIRGELGRESSRIKEFIKIKGKPYIPGTSLKGAIRTAVLYKVLKDCGDVPTVVEALGKYGKTTGNIIRAITHPGNQDLLDYYLFYLGRGNVRGKQADDILEAIVFGFEAERRFRYEPKRDPMKALIVRDSRLIPLDNLSVYEVRVVGWGSSIPIWVEALDPGTRFEAEVKVDRELLRIGSDYFNGLLWHCLAGEDFEEFVWKAVEEFYGELAKLDNVKERDVIRLGWGSGWISMTVGILLMRKRGWERVRRKLGLGKNPHTNKIVERFPKTKRLANGQPMGWIKI | not soluble
MDEDIICVGCGAILQSDDPKKAGYLPKSALDKAKREENTDVYCQRCFRLRHYNEIMPVDLNNDDFLALLNSLSEKKALVVNVVDLFDFSNSLLSSLKRFVGNNDFILVGNKFDLFPKNSKQSKIKDWMRQEANRMGLYPKDIFLVSAKKKVNLESLISYINDHSQDKDVYFVGTTNVGKSTLINAIIDMMGDIQDLITTSRFPGTTLDQIEIPLENGHFLIDTPGIMTDNQLATHLNAKDLELVSPKKPLKPATYQLLPGNTLFLAGLGRIDFLKGESTSFTVYVARDMYVHRTKTANADAFYEKHKGELLTPPSADDQMAPLKGKEFRTDYKSDLLFGGIGFVTVPKGCVVKTYTPDGIGLGIRRALILEHHHHHH | soluble
MSLGTNKDYIEYVHKVYDYLHTIPEKGFEEYKTSEFVLKELEKMGFENINKGVAGTGIIVTIDSKKEGPVFAIRADMDALEFIIDGEKKMIHACGHDGHTSMLLTAAKLIKERNLVKRGKLKILFQPGEEKLYGALRVIDSGLLDDVEEMVGMHLRPGQDCRLGKAIPAMYHCASCIMEFTIKGITCHGSKPHLGVNAVDAVCLAVNAINAIRVNPAIPNSIKVTNISVKGETYNNIPDEAFMALDIRAESNDIIEELKEKAIHAAKTAVSSINAEAVLISKDGVPAAEFDEELVNLAEETIKDVLGADASIGIFKNSGGEDFHYYTQKLKCKTTYIGLGADATPGFHNPNVTFDTKALEYGVDIWCRLVEKRLGEGHHHHHH | soluble
MSLSNNKQSSTNDGKISIVTSTNVYADIAKNIVGKYGSAKAIIKNSATDPHDFEPTTQDAKELSSTNIIVANGLGYDSWMNKLASSVDKKPVLVGEELMKLKKGANPHIWYSLSMPTEYVDYLVKRLSKIDSKHKAYFEANGKKYLAKINQVKALAKNSKKTDKMVFVSEPVFDYALAEAGYKIGDKDFEKAVENNTDPSPKTINRMTNDIKNKKIAFFVNNTQSSSSTVKTFVKLAKQNNIPVLNVRETIPNHTTYLNWMKENYQNLANISKEGHHHHHH | not soluble
MEKDHSSLFYYDQYSKFSRSSQGCRSLNKFSRFNNFRTSACFFDASKPKSDVQPFKKIRYSSEHGCLTMSFDSPSSCPSTSFLCDLSQNLVRGNAHIPKFYTRDLISTIGSRDHYSVDLIPKFGENTSIMKDFKDWGTDLSLQM | not soluble
MSFTQLMRVSMKIAFIGEAVSGFGGMETVIRDVITTFRQQHIQSEMFFFCRNDKMDKGWLEGIKYSCSFSNIRLGFLRRAKHIHALSKWLQEYQPDIVICIDVISCLFAAKARKKSGIDMPVFSWPHFSLDHKKHAEYITCADYHLAISSGIKQQMINRGVAESTINVIFNPVETKDSVIPAPEEGETATFIYVGRMKFEGQKRVKDLLDGLSQAKGNWKLHVLGDGSDFEKCQAYGRELNIDDRIVWYGWQQYPWELVQQDIEKVSALLLTSSFEGFPMTLLEALSWGIPCISADCVSGPADIIQPDVNGHLYQPGDIAGFVTLLNKYIAGEIHIEHEKIPASIDEFYQSKYYDRLHKVIISAISRRK | not soluble
MNLHVKTLSLMTWRSRFLEESFWSLEETAALAKQLPLKSPSENIFLHIVDLSDPKQIWKFVENFKQEHKLHVLINNAGCMVNKRELTEDGLEKNFAANTLGVYILTTGLIPVLEKEHDPRVITVSSGGMLVQKLNTNDLQSERTPFDGTMVYAQNKRQQVVLTERWAQGHPAIHFSSMHPGWADTPDRNEQELRKVVGEAQTASPLPRFLEIMMHEGKCQPQGHSSNDLEACWSSGGGEQNSLPDWPHQLHDLRQLTWALCSSFLLYKQGN | not soluble
MGSDKIHHHHHHMFDMFEKAVVFGLYSITPVHAGSGAELSVIDLPIQRERHTGFPVIWGQSLKGVLRSRFRQLELDEKIEVESQKWKWKEKTKEVLKEKADEFIKKVEERKRDPLLTEIVFGPATDGASEHAGAVSVGDAKILLFPVRSAKGVFAFVTSPIVIQRLKEDFELVSEIENDIELKQILSRFKVELSNNETIAGNALILNGENKVILEDIVLKVKSDSNVIENLVEVLKTLFGDNFFGKPIESIKERIAIVSDDVFKSFTRFSTEIVARVRIDAEKGTVARGGLWYEEFLPSDTLMYSLIAVGSPKKENLPKEVDNTQKIVNVLKVTFNNAFLQIGGDETVGKGFVKVRAGVLTGGHKGN | not soluble
MAHHHHHHMDYAAAIKQQAEDLQDELKDLALWQEEVARQHEVNKMKKSATFVTNSVPPIRGTVPSLKEAVLKSAGVVEKEDPVKKQKDKGNELFQSGKLQEAVEAYAVGIDLDPEGPMAHVLYGNRALCYLKLERWSDAERDASSCVRLNRTYAKGYFRRATARKQLGNLKGARTDLEAVLALSPNDVSATNEMSLVTKMIRADRDGAEPVTRKKIVITEVDDDDDEQCVGEGAQDKTASPSVIESNTGRHPNTVGDQVVKNEIAELERFRAAQRDAQEARSRERETKLQYKGRTSSRVEIVEEINNESKEGVVVSSSPLSLNNGVTSASAQECPSRELAAVSTSGAAQRPATFKDKKMNEPVVPRMLKPTVKWTKDTLKAPKSFTEFERVFLDLKDDEELLCFYVSVIPPGSMQVLFGSNMTPDILLGMLKAAGRLSGTSTVSFLKGLCTVKRVRDISLFFDDCEKKVVEEVMDVVVSCGASDEDVSLFRRQLGVI | soluble
MSLDLQLYLSNLANQIDRETGIGDVPLVILLDDLSEAGSISELVNGALTCKYHKPYIIGTTNQPVKMTPNHGLHLSFRRMLTFSNNVEPANGFLVRYLRRKLVESDSDINANKEELLRVLDWVPKLWYHLHTFLEKHSTSDFLIGGPCFFLSCPIGIEDFRTWFIDLWNNSIIPYLQEGAKDGIKVHGQKAAWEDPVEWVRDTLPWPSAQQDDSTPSSLDSDPLMAMLLKLQEAANYIESPDRETILDPNLQATLEGHHHHHH | soluble
MENEMKEKAVIFTGNSISHEDAKKILLANYQPPVRRFQLEKFIQQGYKVMGIIDGIFFDRAAVGHREIISALNAGVRVVGGASMGALRASELDTHGMIGVGKVYEWYRDGVIESDDEVAISTNPETFEPISVPLVNIRETLKAALGAGILSEKEYEDILELAISTYYPDRSYLGLTKEGAKKGLISEEKRKLLLDFCINSEVDVKKRDAVLVIETVKRLVEETEV | not soluble
MASAAKGKILAVIGDEDTVVGFLLGGVGELNKARKPNYLIVDKQTTVQEIEEAFNGFCARDDIAIILINQHIAEMIRYAVDNHTQSIPAVLEIPSKEAPYDPSKDSILNRARGLFNPEDFR | soluble
MGSDKIHHHHHHMFYYNQYVRAQSLDEAYELYQKKPNFVLGGMLWLKMKNKTLGTAIDLCDLGLDQIDEDENEFRIGAYATLRQIETHEALNAYTHGAIAESVRHIVGVQFRNVATVGGSIWGRFGFSDVMTIFRALGAKVQLHKAGIMDLDEFAALPRTTRDVLVSVIVPKNAKGVVYLSQRNQSTDFPVLTCAVANRSGRYVAVIGASPYMAEPVWDEDGILDGIADAKTDGNAALTDNSETNAKIDKFAEYVAEHIRFGSNIRAGAEYREIICRVLTRRAVTQSLDICDDIKHEH | not soluble
MAHHHHHHMNCSSTLACHAVVSAPSTASLITSCWTPQQHCYRQLMKSLRAAYFHDRSKLFWSRHRVLVEFYKYSEEANEEAVKQLVAIGLEVAAFIDHHMRTDVERIVKHNETMMALPVAQAKKFRSDYLLAEKQHDSWCKQKIKNIMKRRPPPPYPFF | not soluble
MKITVLGCGALGQLWLTALCKQGHEVQGWLRVPQPYCSVNLVETDGSIFNESLTANDPDFLATSDLLLVTLKAWQVSDAVKSLASTLPVTTPILLIHNGMGTIEELQNIQQPLLMGTTTHAARRDGNVIIHVANGITHIGPARQQDGDYSYLADILQTVLPDVAWHNNIRAELWRKLAVNCVINPLTAIWNCPNGELRHHPQEIMQICEEVAAVIEREGHHTSAEDLRDYVMQVIDATAENISSMLQDIRALRHTEIDYINGFLLRRARAHGIAVPENTRLFEMVKRKESEYERIGTGLPRPWLEHHHHHH | not soluble
MPSCEINLIFNDSEEPVTLRDTGIIMLVPVILRSVQSEFPDFENQDNVKVTSPLSIPFNKKAGVFLFEYIQKYVPPNDDTIHELTVVENYKEAGQKTLDELKEIIELANFFECTDFMECLGFVIGKKLEDKSVEEIAAYMGVECNAPGHFFDEADGWVHPPADAFQNVQ | not soluble
